This passage reports EC50 results from patent publication US20180037651A1 (published 2018).

Broadly, the EC50 is the concentration giving half of the maximal effect. Low values mean higher potency in that assay, high ones lower potency in that assay.

This assay deals with T1, human GPRC5D (UniProt Q9NZD1 1-345).
T1 chain: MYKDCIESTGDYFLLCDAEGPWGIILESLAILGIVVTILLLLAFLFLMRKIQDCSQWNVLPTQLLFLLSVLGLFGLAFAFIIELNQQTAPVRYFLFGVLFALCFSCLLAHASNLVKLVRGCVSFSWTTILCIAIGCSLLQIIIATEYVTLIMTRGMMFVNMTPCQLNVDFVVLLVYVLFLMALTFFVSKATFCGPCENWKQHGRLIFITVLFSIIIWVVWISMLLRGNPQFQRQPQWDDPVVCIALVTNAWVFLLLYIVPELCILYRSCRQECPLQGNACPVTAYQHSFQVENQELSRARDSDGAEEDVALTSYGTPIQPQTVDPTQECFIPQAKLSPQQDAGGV
Nature of the assay: FACS cell binding; MM.1R cells.

B1: GC5B603 (antibody, V domains shown)
VH: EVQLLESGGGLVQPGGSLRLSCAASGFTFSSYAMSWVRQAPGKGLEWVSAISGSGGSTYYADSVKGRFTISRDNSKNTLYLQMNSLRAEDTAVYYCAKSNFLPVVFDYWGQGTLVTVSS
VL: EIVLTQSPATLSLSPGERATLSCRASQSVRKSLAWYQQKPGQAPRLLIYTASNRATGIPARFSGSGSGTDFTLTISSLEPEDFAVYYCQQYFRAPITFGQGTKVEIKK
Regarding B1, the EC50 worked out at 1.67 nM.

B2: GC5B599 (antibody, V domains shown)
VH: EVQLVQSGAEVKKPGESLKISCKGSGYSFTSYFIGWVRQMPGKGLEWMGIIYPGKSDTRYSPSFQGQVTISADKSISTAYLQWSSLKASDTAMYYCARVYSFGGRHKALFDYWGQGTLVTVSS
VL: EIVLTQSPATLSLSPGERATLSCRASQSVSSYLAWYQQKPGQAPRLLIYDASNRATGIPARFSGSGSGTDFTLTISSLEPEDFAVYYCQQRSNWPLTFGQGTKVEIK
In turn, B2 yielded an EC50 of 0.1 nM.
